B1: TPR t1 (parent)
chain: GACCAAUCUGCCCUCAGAGCUCGAGAACAUCUUCGGAUGCAGAGGAGGCAGGCUUCGGUGGCGCGAUAGCGCCAACGUCCUCAACCUCCAAUGCAUCCCACCACAUGAUGAUGCCUGAAGAGCCUUGGUUUUUUG

Variants of: B1
Assay: polymerase ribozyme fitness, log enrichment relative to wild type (log ratio); higher = more active; in vitro selection for triplet polymerase activity
Summary of the method: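 Fitness is a logarithmic measure of how a genotype enriched relative to the wild type, with replicate averages weighted by inverse variance. The logarithm uses base 2, and enrichment came from Illumina sequencing of input and output libraries. Those libraries were PCR-built, transcribed mutants of each subunit of a heterodimeric triplet polymerase ribozyme, passed through one triplicate in vitro selection round that included frozen incubation at −7 °C, gel excision of extended constructs and streptavidin-bead capture. Genotypes were kept only if they had ≥10 input reads and ≥1 read per output.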

Variant | polymerase ribozyme fitness (log ratio)
GACCAAUCUGCCCUCAGCGCUCGAUAACAUCUUCGGAUGCGGAGGAGGCAGGUUUCGGUGGCGCGAUAGCGCCAACGUCCUCAACCUCCAAUGCAUCCCACCACAUGAUGAUGCCUGAAGAGCAUUGGUUUUUUG | -6.92
GACCAAUCUGCCCUCAGCGCUCGAGAACAUCUUCGGAUGCAGAGGAGGCAGGCUUGGGUGGCGCGAUAGCGUCAACGUCCUCAACCUCCAAUGCAUCCCACCACAUGAUGAUGCCUGAAGAGCCUUGGUUUUUUG | -1.24
GACCAAUCUGCCCUCAGCGCUCGAGAACAUCUUCGGAUGCAGAGGAGGCAGGCUUCGGUGGCGCGAUAGCGCCAACGUCCUCAACCUCCAAGGCAUCCCACCACAUGAUGAUGCCUGAAGAGCCUUGGUUUUUUG | -2.86
GACCAAUCUGCCCUCAGCGCUCGAGAACAUCUUCGGAUGCAGAGGAGGCAGGCUUCGGUGACGCGAUAGCGCCAACGUCCUCAACCUCCAAUGCAUCCCACCACAUGUUGAUGCUUGAAGAGUCUUGGUUUUUUG | -6.75
GACCAAUCUGCCCUCAGCGCUCGAGAACAUCUUCGGAUGCAGAGGAGGCAGGCUUCGGUGGCGCGAUAGCGCCAACGUCCUCAACCUCCAAUGCAUCCCACCACAUGAUGAUGCCUCAAGAGCCUUGGUUUUUUG | -4.33
GACCAAUCUGCCCUCAGCGCUCGAGAACAUCUUCGGAUGCAGAGGAGGCAGGCUUCGGUCGCGCGAUAGCGCCAACGUCCUCAACCUCCAAUGCAUCCCACCACAUGAUGAUGCCUGAAGAGCCUUGGUUUUUUG | -2.9
GACCAAUCUGCCCUCAGCGCUCGAGAACAUCUUCGGAUGCAGAGGAGGCAGGCUUCGGUGGCGCGAUAGCGCCAACGUCCUCAACCUCCAAUGCAUCCCACCACAUGAUGACGCCUGAAGAGCCUUGGUUUUUUG | -0.328
GACCAAUCUGCCCUCAGCGCUCGAGAACAUCUUCGGAUGCAGAGGAGGCAGGCUUCGGUGGCUCGAUAGCGCCAACGUCCUCAACCUCCAAUGCAUCCCACCACAUGAUGAUGCCUGAAGAGCCUUGGUUUUUUG | -4.53
GACCAAUCUGCCCUCAGCGCUCGAGAACAUCUUCGGAUGCAGAGGAAGCAGGCUUCGGUGGCGCGAUAGCGCCAACGUCCUCAACCUCCAAUGCAUCCCACCACAUGAUGAUGCCUGAAGUGCCUUGGUUUUUUG | -1.35
GACCAAUCUGCCCUCAGCGCUCGAGAACAUCUUCGGAUGCAGAGGAGACAGGCUUCGGUGGCGCGAUAGCGCCAACGUCCUCAACCUCCAAUGGAUCCCACCACAUGAUGAUGCCUGAAGAGCCUUGGUUUUUUG | -3.96
GACCAAUCUGCCCUCAGCGCUCGAGAACAUCUUCGGAUGCAGAGGAGGCAGGCUUCGGUGGCGCGAUAGCGUCAACGUCCUCAACCUCCAAUGCAUCCCACCACAUGAUGAUCCCUGAAGAGCCUUGGUUUUUUG | -3.97
GACCAAUCUGCCCUCAGGGCUCGAGAACAUCUUAGGAUGCAGAGGAGGCAGGCUUCGGUGGCGCGAUAGCGCCAACGUCCUCAACCUCCAAUGCAUCCCACCACAUGAUGAUGCCUGAAGAGCCUUGGUUUUUUG | -5.57
GACCAAUCUGCCCUCAGGGCUCGAGAACAUCUUCGGAUGCAGAGGAGGCAGGCUUCGGUGGCGCGAUAGUGCCAACGUCCUCAACCUCCAAUGCAUCCCACCACAUGAUGAUGCCUGAAGAGCCUUGGUUUUUUG | -2.4
GACCAAUCUGCCCUCAGGGCUGGAGAACAUCUUCGGAUGCAGAGGAGGCAGGCUUCGGUGGCGCGAUAGCGCCAACGUCCUCAACCUCCAAUGCAUCCCACCAAAUGAUGAUGCCUGAAGAGCCUUGGUUUUUUG | -5.54
GACCAAUCUGCCCUCAGCGCUCGAGAACAUCUUCGGAUGCAGAGGAGGCAGGCUUCGGUGGUGCGAUAGCGCCAACGUCCUCAACCUCCAAUGCAUCCCACCACAUGAUGAUGCCUGAAGAGCCUUGGUUUUUUG | -2.83
GACCAAUCUGCCCUCAGCGCUCGAGAACAUCUUCGGAUUCAGAGGAGGCAGGCUUCGGUGGCGCGAUAGCGCCAACGUCCUCAACCUCCAAUGCAUCCCAACACAUGAUGAUGCCUGAAGAGCCUUGGUUUUUUG | -3.85
GACCAAUCUGCCCUCAGCGCUCGAGAACAUCUUCGGAUGCAGAGGAGGCAGGCUUCGCUGGCGCGAUAGCGCCAACGUCCUCAACCUCCAAUGCAUCCCACCACAUGAUGAUGCCUGAAGAGCCUUGGUUUUUUG | -2.1
GACCAAUCUGCCCUCAGCGCUCGAGAACAUCUUCGGAUGCAGAGGAGGCAGGCUUCGGUGGCCCGAUAGCGCCAACGUCCUCAACCUUCAAUGCAUGCCACUACAUGAUGAUGCCUGAAGAGUCUUGGUUUUUUG | -6.68
GACCAAUCUGCCCUCAGCGCUCGAGAACAUCUUCGGAUGCAGAGGAGGCAGGCUUCGGUGGCGCGAUAGCCCCAACGUCCUCAACCUCCAAUGCAUCCCACCACAUGAUGAUGCCUGAAGAGCCUUGGUUUUUUG | -4.19
GACCAAUCUGCCCUCAGCGCUCGAGAACAUCUUCGGAUGCAGAGGAGGCAGGCUUCGGUAGCGCGAUAGCGCCAACGGCCUCAACCUCCAAUGCAUCCCACCACAUGAUCAUGCCUGAAGAGCCUUGGUUAUUUG | -7.27
GACCAAUCUGCCCUCAGCGCUCGAGAACAUCUUCGGAUGCAGAGGAGGCAGGCUUCGGUGGUGCGAUAGCGCCAACGUCCUCAACCCCCAAUGCAUCCCACCACAUGAUGAUGCCUGAAGAGCCUUGGUUUUUUG | -3.61

Variant | polymerase ribozyme fitness (log ratio)
GACCAAUCUGCCCUCAGCGCUCGAGAACAUCUUCGGAUGCAGAGGAGGCAGGCUUCGGUGGCGCGAUAGCGCCAACGUCCUCAACCUCCAAUGCAUCCCACCACAUGAUGAUGCCUGAAGAGCUUUGGUUUUUUG | -1.22
GACCAAUCUGCCCUCAGCGCUCGAGAACAUCUUCGGAUGCAGAGGAGGCAGGCUUCGGUGGCGCGAUAGCGCCAACGUCCUCAACCUCGAAUGCAUCCCACCACAUGAUGAUGCCCGAAGAGCAUUGGUUUUUUG | -0.0811
GACCAAUCUGCCCUCAGCGCUCGAGAACAUCUUCGGAUGCAGAGGAGGCAGGCUUCGGUGGCGCGAUAUCGCCAACGUCCUCAACCUCCAAUGCAUCCCACCACAUGAUGAUGCCUGAAGAGCCUUGGUUUUUUG | -0.162
GACCAAUCUGCCCUCAGCGCUCGAGAACAUCUUCGGAUGCAGAGGAGGCAGGCUUCGGUGGCGCGAUAACGCCAACGUCCUCAACCUCCAAUGCAUCCCACCACAUGAUGAUGCCUGAAGAGCCUUGGUUUUUUG | -6.17
GACCAAUCUGCCCUCAGCGCUCGAGAACAUCUUCGGAUGCAGAGGAGGCAGGCUUCGGUGGCGCGAUAGCGCCAACGACCUCAACCUCCAAUGCAUCCCACCACAUGAUGAGGCCUGAAGAUCCUUGGUUUUUUG | -4.43
GACCAAUCUGCCCUCAGCUCUCGAGAACAUCUUCGGAUGCAGAGGAGGCAGGCUUCGGUGGCGCGAUAGCGGCAACGUCCUCAACCUCCAAUGCAUCCCACAAGAAGAUGAUGCCUGAAGAGGCUUGGUUUUUUG | -5.8
GACCAAUCUGCCCUCAGGGCUCGAGAACAUCUUCGGAUGCAGAGGAGGCAGGCUUCGGUGGCGCGAUAGCGCCCACGUCCUCAACCUCCAAUGCAUACCACCACAAGAUGAUGCCUGAAGAGCCUUGGUUUUUUG | -6.31
GACCAAUCUGCCCUCAGCGCUCGAGAACAUCUUCGGAUGCAGAGGAGGCAGGCUUUGGUGGCGCGAUAGCGCCAACGUCCUCAACCUCCAAUGCAUCCCACCACAUGAUGAUGCCUGAAGAGCCUUGGUUUAUUG | -2.9
GACCAAUCUGCCCUCAGCGCUCGAGAACAUCUUCGGAUGCAGAGGAGGCAGGCUUGGGUGGCGCGAUAGCGUCAACGUCCUCAACCUCCAAUGCAUCCCACCACAUGAUGAUGCCUGAAGAGCUUUGGUUUUUUG | -0.737
GACCAAUCUGCCCUCAGCGCUCGAGAACAUCUUCGGAUGCAGAGGAGGCAGGCUUCGGUGGCGCGAUAGCGCCAACGUCCUCAACCUCCAAUGCAUCCCACCACAUGAUGAUGUCUGAAGAGCCUUGGUUUUUUG | -3.82
GACCAAUCUGCCCUCAGCGCUCGAGAACAUCUUCGGAUGCAGAGGAGACAGGCUUCGGUGGCGCGAUAGCGCCAACGUCCUCAACCUCCAAUGCAUCCCACCACAUGAUGAUGCCUGAGAAGCCUAGGUUUUUUG | -3.21
GACCAAUCUGCCCUCAGCGCUCGAGAACAUCUUCGGAUGCAGAGGAGGCAGGCUUCGGUGGCGCGAUAGCGCCAACGUCCUAAUCCUCCAAUGCAUCCCACCACAUGAUGAUGCCUGAAGAGCCUUGGUUUUUUG | -3.72
GACCAAUCUGCCCUCAGCGCUCGAGAACAUCUUCGGAUGCAGAAGAGGCAGGCUUCGGUGUCGCGAUAGCGCCAACGUCCUCAAGCUCCAAUGCAUCCCACCACAUGAUGAUGCCUGAAGUGCCUUGGUUUUUUG | -2.31
GACCAAUCUGCCCUCAGGGCUCGAGAACAUCUUCGGAUGCAGAGGAGGCAGGCUUCGGUGGCGCGAUAGAGCCAACGUCCUCAACCUCCACUGCAUCCCACCACAUGAUGAUACCUGAAGAGCCUUGGUUUUUUG | -2.9
GACCAAUCUGCCCUCAGGGCUCGAGAAAAUCUUCGGAUGCAGAGGAGGCAGGCUUCGGUGGCGCGAUAGCGCCAACGUCCUCAACCUCCAAUGCAUCCCACCACAUGAUGAAGCCUGAAGAGCCUUGGUUUUUUG | -4.92
GACCAAUCUGCCCUCAGCGCUCGAGAACAUCUUCGGAUGCAGAGGAGGCAGGCUUCGGUGGGGCGAUAGCGCCAACGUCCUCAACCCCCCAUGCAUCCCACCACAUGAUCAUGCAUGAAGAGCCUUGGUUUUUUG | -7
GACCAAUCUGCCCUCAGCGCUCGAGAACAUCUUCGGAUGCAGAGGAGGCAGGCUUCGGUGGCGCGAUAGCGCCAACGUCCUCAACGUCCAAUGCAUCCCACCACAUGAUGAUGCCUGAAGAGCCUUGGUUUUUUG | -3.25
GACCAAUCUGCCCUCAGCGCUCGAGAACAUCUUCGUAUGCAGAGGAGGCAGGCUUCGGUGGCGCGAUAGCGCCAACGUCCUCAACCUCCAAUGCAUCCCACCACAUGAUGAUGCCUGAAGAGCCUUGGUUUUUUG | -4.02
GACCAAUCUGCCCUCAGCGCUCGAGAACAUCCUCGGAUGCAGAGGAGGCAGGCUUCGGUGGCGCGAUAGCGCCAACGUCCUCAACCUCCAAUGCAUCCCACCACAUGAUGAUGCCUGAAGAGCCUUGGUUUUUUG | -2.05
GACCAAUCUGCCCUCAGCGCUCGAGAACAUCUUCGGAUGCAGAGGAGGCAGGCUUCGGUGGCGCGAUAGCGCCAACGUCCUCAACCUCCAAUCCAUCCCACCACAUGAUGAUGCCUGAAGAGCCUUGGUUUUUUG | -3.24
GACCAAUCUGCCCUCAGGGCUCGAGAACAUCUUCGGAUGCAGAGGAGGCAGGCUUCGGUGGUGCGAUAGCGCCCACGUCCUCAACCUCCAAUGCAUCCCACCACAUGAUGAUGCCUGAAGAGCCUUGGUUUUUUG | -5.71

From the RNAGym collection of RNA variant scans (doi:10.1073/pnas.2313332121)
